Test results: US8822407B2, “Preparation of conjugates comprising adenine derivatives and allergenic proteins and their use for specific immunotherapy of allengenic diseases” (Universita' Degli Studi di Firenze, priority 2010, dated 2014)

How the values were obtained:
[1] = tested on: purified CD14+ cells; assay: Cytokine production by purified CD14+ cells (ELISA of supernatants, 36 hrs); type: cell-based, human; details: for IL-6 production / IL-10 production / IL-12p40 production / TNF-alfa production: Table E
Method: Circulating mononuclear cells (MNC) are isolated by density gradient (Ficoll-Hypaque) using buffy coats from 14 normal donors (Servizio Immunotrasfusionale e terapie cellulari, Azienda Ospedaliera Universitaria A. Meyer, Firenze). 200×10^6 MNC are separated by the use of a commercial kit (CD14 isolation kit, Miltenyi) by the addition of 400 μl anti-CD14 monoclonal antibody bound to iron beads followed by isolation on magnetic columns (LS column). 50×10^6 monocytes are recovered by positive selection and are extensively washed with calcium and magnesium-free sterile PBS and then seeded in complete medium plus 10% foetal calf serum in 24 flat bottomed plates at the concentration of 1×10^6/ml. […] The plates are incubated for 36 hrs at 37° C. in 5% CO2 humidified atmosphere and the supernatants are collected after centrifugation at 1200 rpm, aliquoted and then stored at −20° C. up to the assay. […]
(§1) For the determination of cytokines and chemokines of the innate immunity, commercial ELISAs have been used: IL-12p40 (Cytoscreen, Biosource Int, Camarillo, Calif.), IFN-alfa (Cytoscreen), TNF-alfa (Cytoscreen), IL-10 (Pharmingen), IL-6 and CXCL10 (R&D System). 100 μl/well of single supernatants are incubated in flat bottomed plates as specified by the productors and the amounts of the single cytokines are expressed as pg/ml on the basis of a reference curve by using recombinant cytokines.

[2] = tested on: purified BDCA4+ cells; assay: Cytokine production by purified BDCA4+ cells (plasmacytoid dendritic cells), ELISA; type: cell-based, human; details: for IFN-alfa production / IL-6 production / IL-10 production / TNF-alfa production: Table F
Method: The preparation of purified BDCA4+ cells has been obtained in a similar way starting from MNC of buffy coats of the same 14 healthy donors. […] By positive selection 5×10^6 plasmacytoid dendritic cells (PDCs) are recovered, extensively washed with calcium and magnesium-free sterile PBS and seeded in complete medium plus 10% foetal calf serum in 24-flat bottomed plates at the concentration 1×10^6/ml. […] The plates are incubated for 36 hrs at 37° C. in 5% CO2 humidified atmosphere and the supernatants are collected after centrifugation at 1200 rpm, aliquoted and then stored at −20° C. up to the assay. […]
as §1

[3] = target: T1, human TLR7 (Homo sapiens, UniProt Q9NYK1); assay: TLR7 activation, NF-kB luciferase reporter in transfected HEK293 cells; type: cell-based; details: human TLR7-encoding plasmid
T1 construct: expressed in transfected cells; host or cells: HEK293 (transient Nucleofection, Amaxa)
T1 sequence (Q9NYK1 27-1049): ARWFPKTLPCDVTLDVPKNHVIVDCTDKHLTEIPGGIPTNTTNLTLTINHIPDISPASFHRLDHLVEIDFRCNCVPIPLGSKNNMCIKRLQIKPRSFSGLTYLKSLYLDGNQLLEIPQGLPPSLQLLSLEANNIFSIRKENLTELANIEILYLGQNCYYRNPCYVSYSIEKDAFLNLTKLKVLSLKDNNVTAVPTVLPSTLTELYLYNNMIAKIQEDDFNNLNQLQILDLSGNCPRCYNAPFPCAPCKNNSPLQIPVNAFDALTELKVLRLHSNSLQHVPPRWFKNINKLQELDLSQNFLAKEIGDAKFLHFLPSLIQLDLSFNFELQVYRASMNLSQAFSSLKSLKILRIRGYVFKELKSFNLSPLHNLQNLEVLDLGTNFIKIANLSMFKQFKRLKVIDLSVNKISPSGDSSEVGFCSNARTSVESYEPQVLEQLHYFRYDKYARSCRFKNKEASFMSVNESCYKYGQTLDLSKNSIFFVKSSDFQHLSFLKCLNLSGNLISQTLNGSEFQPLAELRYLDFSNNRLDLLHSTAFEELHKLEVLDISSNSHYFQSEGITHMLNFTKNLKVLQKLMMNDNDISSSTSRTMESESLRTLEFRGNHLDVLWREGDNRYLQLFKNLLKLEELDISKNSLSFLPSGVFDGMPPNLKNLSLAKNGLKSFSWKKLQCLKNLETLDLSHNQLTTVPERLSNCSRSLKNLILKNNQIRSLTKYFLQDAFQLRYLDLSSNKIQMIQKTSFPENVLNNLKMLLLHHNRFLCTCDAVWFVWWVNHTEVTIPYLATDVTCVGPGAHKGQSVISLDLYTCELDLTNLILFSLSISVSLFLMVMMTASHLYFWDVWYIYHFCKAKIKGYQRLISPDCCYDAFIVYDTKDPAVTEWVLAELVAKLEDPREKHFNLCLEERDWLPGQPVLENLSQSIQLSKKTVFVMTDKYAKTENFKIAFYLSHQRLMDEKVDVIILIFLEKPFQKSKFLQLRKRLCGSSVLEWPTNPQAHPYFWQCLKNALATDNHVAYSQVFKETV
Method: HEK293 cells are detached by trypsin from the plastic surface of the culture bottle, extensively washed with calcium and magnesium-free PBS, counted and adjusted at the concentration 1×10^6 cells/tube in polypropylene V-bottomed tubes. After the final wash, the cells are pelleted and 100 μl transfection buffer (Amaxa) is added together with […], TLR7, TLR8 or TLR9-encoding and ELAM-1 promoter NF-kB luciferase reporter plasmids. The mixture thus obtained is transferred in special cuvettes and transient transfection is obtained in a special apparatus which is able to directly introduce genetic material into the nucleus (Nucleofection®, Amaxa GmbH). The cells are then recovered and cultured at 1×10^5/ml in 48-flat bottomed plates in E-MEM medium plus 5% foetal calf serum for 18 hrs. […] Finally the luciferase activity is measured in the cellular lysates by a commercial kit (Promega).

B1: nDer p2: purified natural allergen Der p2, major allergen from the house dust mite Dermatophagoides pteronyssinus (protein, UniProt P49278 18-146, looked up)
Mite group 2 allergen Der p 2: DQVDVKDCANHEIKKVLVPGCHGSEPCIIHRGKPFQLEAVFEANQNTKTAKIEIKASIDGLEVDVPGIDPNACHYMKCPLVKGQQYDIKYTWNVPKIAPKSENVVVTVKVMGDDGVLACAIATHAKIRD
modifications: natural purified
notes: purified natural allergen Der p2, major allergen from the house dust mite Dermatophagoides pteronyssinus
IL-6 production (mean ± SE) ([1]; Table B, dose 10 μg/ml): 0 ± 0 ng/mL
IL-10 production (mean ± SE) ([1]; Table B, dose 10 μg/ml): 0.4 ± 0.4 ng/mL
IL-12p40 production (mean ± SE) ([1]; Table B, dose 10 μg/ml): 0 ± 0 ng/mL
TNF-alfa production (mean ± SE) ([1]; Table B, dose 10 μg/ml): 0.05 ± 0.06 ng/mL
IL-6 production ([1]; Donor #1, dose 10 μg/ml): 0 pg/mL
IL-10 production ([1]; Donor #1, dose 10 μg/ml): 0 pg/mL
IL-12p40 production ([1]; Donor #1, dose 10 μg/ml): 0 pg/mL
TNF-alfa production ([1]; Donor #1, dose 10 μg/ml): 218 pg/mL
IL-6 production ([1]; Donor #2, dose 10 μg/ml): 0 pg/mL
IL-10 production ([1]; Donor #2, dose 10 μg/ml): 0 pg/mL
IL-12p40 production ([1]; Donor #2, dose 10 μg/ml): 0 pg/mL
TNF-alfa production ([1]; Donor #2, dose 10 μg/ml): 0 pg/mL
cytokine production from purified CD14+ cells (in words) ([1]; text to Tables A and B): essentially unable to induce the production of valuable cytokines
IFN-alfa production (mean ± SE) ([2]; Table D, dose 10 μg/ml): 0.07 ± 0.06 ng/mL
IL-6 production (mean ± SE) ([2]; Table D, dose 10 μg/ml): 0 ± 0 ng/mL
IL-10 production (mean ± SE) ([2]; Table D, dose 10 μg/ml): 0 ± 0 ng/mL
TNF-alfa production (mean ± SE) ([2]; Table D, dose 10 μg/ml): 0.03 ± 0.02 ng/mL
IFN-alfa production ([2]; Donor #1, dose 10 μg/ml): 0 pg/mL
IL-6 production ([2]; Donor #1, dose 10 μg/ml): 0 pg/mL
IL-10 production ([2]; Donor #1, dose 10 μg/ml): 0 pg/mL
TNF-alfa production ([2]; Donor #1, dose 10 μg/ml): 0 pg/mL
IFN-alfa production ([2]; Donor #2, dose 10 μg/ml): 0 pg/mL
IL-6 production ([2]; Donor #2, dose 10 μg/ml): 0 pg/mL
IL-10 production ([2]; Donor #2, dose 10 μg/ml): 0 pg/mL
TNF-alfa production ([2]; Donor #2, dose 10 μg/ml): 0 pg/mL
TLR7 activation (NF-κB luciferase) in transfected HEK293 cells [3]: lack any activity
